Test results as given in patent US7202329 (MYRIAD GENETICS, dated 2007).

Legend:
Assay in all cases: yeast two-hybrid
[1] = biological target: T1, intersectin 1 (aa 387-611) (UniProt Q15811 387-611)
T1 construct: range 387-611
T1 sequence (looked up): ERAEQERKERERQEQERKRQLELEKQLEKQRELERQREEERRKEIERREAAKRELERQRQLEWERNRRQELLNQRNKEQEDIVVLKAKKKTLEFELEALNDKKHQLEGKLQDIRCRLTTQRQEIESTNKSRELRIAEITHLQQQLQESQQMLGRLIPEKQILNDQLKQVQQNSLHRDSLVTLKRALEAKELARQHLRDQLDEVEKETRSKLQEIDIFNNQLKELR

[2] = biological target: T2, GTPase-activating protein 1 (aa 1308-1606) (UniProt P46940 1308-1606)
T2 construct: range 1308-1606; also called IQGAP1; IQGAP
T2 sequence (looked up): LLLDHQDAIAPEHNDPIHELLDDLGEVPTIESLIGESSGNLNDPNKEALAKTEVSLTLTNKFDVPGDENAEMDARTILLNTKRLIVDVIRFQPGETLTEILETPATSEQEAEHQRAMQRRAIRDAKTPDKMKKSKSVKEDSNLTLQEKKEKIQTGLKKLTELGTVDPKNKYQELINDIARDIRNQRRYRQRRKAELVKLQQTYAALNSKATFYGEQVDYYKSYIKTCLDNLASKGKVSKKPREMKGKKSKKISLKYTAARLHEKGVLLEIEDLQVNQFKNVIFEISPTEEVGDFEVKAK

[3] = biological target: T3, hook2 protein (aa 290-555) (UniProt Q96ED9 290-555)
T3 construct: range 290-555
T3 sequence (looked up): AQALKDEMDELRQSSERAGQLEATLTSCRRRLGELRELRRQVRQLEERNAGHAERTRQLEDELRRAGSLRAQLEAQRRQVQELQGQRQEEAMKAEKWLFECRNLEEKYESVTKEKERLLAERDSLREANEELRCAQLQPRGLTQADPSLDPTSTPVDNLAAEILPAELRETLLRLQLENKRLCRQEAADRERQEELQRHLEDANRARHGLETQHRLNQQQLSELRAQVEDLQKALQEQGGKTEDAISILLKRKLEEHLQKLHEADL

[4] = biological target: T4, GTPase-activating protein 1 (aa 1413-1567) (UniProt P46940 1413-1567)
T4 construct: range 1413-1567; also called IQGAP1; IQGAP
T4 sequence (looked up): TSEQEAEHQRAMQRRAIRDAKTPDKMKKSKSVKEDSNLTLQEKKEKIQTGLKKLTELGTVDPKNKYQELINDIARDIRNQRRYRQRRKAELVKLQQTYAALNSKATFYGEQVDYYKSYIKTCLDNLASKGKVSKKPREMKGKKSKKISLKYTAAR

[5] = biological target: T5, mitotic spindle coiled-coil related protein (aa 723-1012) (UniProt Q96R06 723-1012)
T5 construct: range 723-1012
T5 sequence (looked up): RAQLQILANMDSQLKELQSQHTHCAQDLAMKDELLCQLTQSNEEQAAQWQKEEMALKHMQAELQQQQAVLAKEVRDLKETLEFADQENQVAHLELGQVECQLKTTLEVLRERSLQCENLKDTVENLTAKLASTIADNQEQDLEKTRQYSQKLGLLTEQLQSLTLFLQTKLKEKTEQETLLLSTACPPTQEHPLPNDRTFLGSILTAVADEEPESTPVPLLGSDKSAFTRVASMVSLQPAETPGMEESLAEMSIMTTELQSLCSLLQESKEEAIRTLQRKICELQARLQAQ

[6] = biological target: T6, catenin, GenBank U96136 (aa 684-1148) (UniProt Q9UQB3 684-1148)
T6 construct: range 684-1148
T6 sequence (looked up): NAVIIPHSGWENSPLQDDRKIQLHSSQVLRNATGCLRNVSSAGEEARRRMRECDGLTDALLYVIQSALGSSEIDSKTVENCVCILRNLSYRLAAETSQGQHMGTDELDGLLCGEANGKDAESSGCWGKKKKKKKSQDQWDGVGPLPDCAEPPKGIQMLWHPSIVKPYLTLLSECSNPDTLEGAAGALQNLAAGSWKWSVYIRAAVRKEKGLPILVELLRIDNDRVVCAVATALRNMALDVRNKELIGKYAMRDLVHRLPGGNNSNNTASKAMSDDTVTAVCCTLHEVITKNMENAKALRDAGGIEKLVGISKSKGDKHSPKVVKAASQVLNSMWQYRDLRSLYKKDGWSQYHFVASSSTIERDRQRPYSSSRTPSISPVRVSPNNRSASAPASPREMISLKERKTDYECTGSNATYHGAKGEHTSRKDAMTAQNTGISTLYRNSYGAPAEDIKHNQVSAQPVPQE

[7] = biological target: T7, serum deprivation response (aa 75-258) (UniProt O95810 75-258)
T7 construct: range 75-258
T7 sequence (looked up): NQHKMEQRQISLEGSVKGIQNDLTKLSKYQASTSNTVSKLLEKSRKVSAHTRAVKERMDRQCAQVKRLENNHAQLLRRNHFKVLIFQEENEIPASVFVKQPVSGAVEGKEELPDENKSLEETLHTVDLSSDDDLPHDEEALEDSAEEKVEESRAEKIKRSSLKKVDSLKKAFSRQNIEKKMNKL

[8] = biological target: T8, hook2 protein (aa 201-559) (UniProt Q96ED9 201-559)
T8 construct: range 201-559
T8 sequence (looked up): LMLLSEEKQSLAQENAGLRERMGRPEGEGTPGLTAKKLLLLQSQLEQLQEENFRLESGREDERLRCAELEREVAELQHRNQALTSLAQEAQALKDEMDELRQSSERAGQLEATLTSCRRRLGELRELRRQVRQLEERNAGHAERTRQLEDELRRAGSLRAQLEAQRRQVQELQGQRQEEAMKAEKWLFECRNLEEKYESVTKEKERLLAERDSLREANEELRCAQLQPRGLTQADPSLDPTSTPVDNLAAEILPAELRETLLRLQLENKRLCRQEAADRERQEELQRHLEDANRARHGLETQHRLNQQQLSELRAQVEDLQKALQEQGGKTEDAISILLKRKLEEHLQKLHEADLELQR

Measured: binding result

B1: Tsg101 (aa 240-391) (other, human, UniProt Q99816 240-390, looked up)
chain: WRMKEEMDRAQAELNALKRTEEDLKKGHQKLEEMVTRLDQEVAEVDKNIELLKKKDEELSSALEKMENQSENNDIDEVIIPTAPLYKQILNLYAEENAIEDTIFYLGEALRRGVIDLDVFLKHVRLLSRKQFQLRALMQKARKTAGLSDLY
notes: range 240-391; also called C-terminal fragment of Tsg101; amino acid residues 240-390
binds: [1] | [2] | [3] | [4] | [5] | [6] | [7] | [8]
